These results are taken from patent US20250320281A1.

Some results are limits rather than exact numbers.

Targets include HIV-1 APV13 Env (HIV-1); HIV-1 APV6 Env (HIV-1); HIV-1 CMU02 Env (HIV-1).
Holding throughout (test): cell-based or functional assay
Assay [1] has as its target HIV-1 Env of isolate CAP45 (clade C pseudovirus) (HIV-1).
In assay [2] the target is HIV-1 Env of isolate ZM214 (clade C pseudovirus) (HIV-1).
Assay [3] has as its target HIV-1 Env of isolate THRO.18 (clade B pseudovirus) (HIV-1).
Assay [4] concerns the target HIV-1 Env of isolate AC10 (clade B pseudovirus) (HIV-1).
Assay [5] deals with HIV-1 Env of isolate ZM249 (clade C pseudovirus) (HIV-1).
For assay [6], the target named is HIV-1 Env of isolate TR0.11 (clade B pseudovirus) (HIV-1).
Assay [7] concerns the target aMLV envelope protein on pseudovirus (negative control virus) (aMLV).
Assay [8] concerns the target HIV-1 92RW020 Env (pseudovirus) (HIV-1 isolate 92RW020 (clade A)).
The target in assay [9] is HIV-1 MGRM-C-028 Env (pseudovirus) (HIV-1 isolate MGRM-C-028 (clade C)).
Assay [10] addresses HIV-1 MGRM-C-027 Env (pseudovirus) (HIV-1 isolate MGRM-C-027 (clade C)).
Assay [11] addresses HIV-1 APV17 Env (pseudovirus) (HIV-1 isolate APV17 (clade B)).
Assay [12] deals with HIV-1 MGRM-D-001 Env (pseudovirus) (HIV-1 isolate MGRM-D-001 (clade D)).
The target in assay [13] is HIV-1 CMU02 Env (pseudovirus) (HIV-1 isolate CMU02 (clade AE)).
Assay [14] has as its target aMLV envelope (control pseudovirus) (aMLV).
The target in assay [15] is HIV-1 Env of isolate MG RM-D-024 (HIV-1).
The target in assay [16] is HIV-1 Env of pseudovirus MGRM-AG-008 (subtype AG) (HIV-1).
Assay [17] deals with HIV-1 Env of pseudovirus MGRM-AG-011 (subtype AG) (HIV-1).
Assay [18] concerns the target HIV-1 93IN905 envelope glycoprotein (Env) on pseudovirus (HIV-1 isolate 93IN905 (clade C)).
Assay [19] deals with HIV-1 94UG103 envelope glycoprotein (Env) on pseudovirus (HIV-1 isolate 94UG103 (clade A)).
The target in assay [20] is HIV-1 JRCSF envelope glycoprotein (Env) on pseudovirus (HIV-1 isolate JRCSF (clade B)) (UniProt P20871).
The target in assay [21] is HIV-1 Env of isolate MGRM-Chronic-B-020 (HIV-1).
The target in assay [22] is HIV-1 Env of pseudovirus MGRM-A-001 (subtype A) (HIV-1).
The target in assay [23] is HIV-1 Env of pseudovirus MGRM-A-004 (subtype A) (HIV-1).
In assay [24] the target is HIV-1 Env of isolate MG RM-D-029 (clade D), on pseudovirus (HIV-1).
Assay [25] addresses HIV-1 Env of isolate MGRM-F1-023 (clade F pseudovirus) (HIV-1).
For assay [26], the target named is HIV-1 MGRM-C-027 Env (HIV-1).
Assay [27] deals with HIV-1 MGRM-AG-005 Env (HIV-1).
The target of assay [28] is HIV-1 MGRM-C-026 Env (HIV-1).
The target in assay [29] is HIV-1 92UG005 Env (HIV-1).
Assay [30] addresses HIV-1 92RW020 Env (HIV-1).

Sequence of 1443_C16 (PG16) (TCN-116) (antibody) (VH): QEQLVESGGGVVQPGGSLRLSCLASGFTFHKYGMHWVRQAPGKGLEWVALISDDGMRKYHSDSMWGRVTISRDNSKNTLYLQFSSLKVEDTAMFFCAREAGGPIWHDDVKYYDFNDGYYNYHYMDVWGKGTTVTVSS
Sequence of 1443_C16 (PG16) (TCN-116) (antibody) (VL): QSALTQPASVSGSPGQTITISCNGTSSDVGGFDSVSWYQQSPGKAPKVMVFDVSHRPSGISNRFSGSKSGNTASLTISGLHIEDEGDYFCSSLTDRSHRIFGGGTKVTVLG

Regarding 1443_C16 (PG16) (TCN-116) (antibody), the IC50 (neutralization, TZM-bl pseudovirus assay) in assay [1] was under 0.01 µg/mL; in assay [2], over 25 µg/mL; in [3] it was 2.19 µg/mL; in [4] it was under 0.01 µg/mL; in [5], under 0.01 µg/mL; in assay [6] it was 3.61 µg/mL.

In [7], 4858_P08 (PGT-123) (antibody) returned a neutralization IC50 of over 10 µg/mL, a neutralization IC80 of over 10 µg/mL, a neutralization IC90 of over 10 µg/mL and a neutralization IC95 of over 10 µg/mL.

With 5123_A06 (PGT-125) (antibody), the Neutralization by PGT-125, IC50 was 0.0028 µg/mL in assay [8]; 5.78 µg/mL in assay [9]; over 10 µg/mL in assay [10]; 7.31 µg/mL in assay [11]; 2.31 µg/mL in assay [12]; over 10 µg/mL in assay [13]. In assay [14], this substance yielded a Neutralization by PGT-125, IC50 of over 10 µg/mL. The Neutralization by PGT-125, IC80 was 0.011 µg/mL in assay [8]; over 10 µg/mL in assay [9]; over 10 µg/mL in assay [10]; over 10 µg/mL in [11]; over 10 µg/mL in assay [12]; over 10 µg/mL in assay [13]. This substance yielded a Neutralization by PGT-125, IC80 in [14] of over 10 µg/mL. For the same substance, the Neutralization by PGT-125, IC90 is 0.0248 µg/mL in assay [8]; over 10 µg/mL in assay [9]; over 10 µg/mL in assay [10]; over 10 µg/mL in assay [11]; over 10 µg/mL in [12]; over 10 µg/mL in assay [13]. In assay [14], this substance yielded a Neutralization by PGT-125, IC90 of over 10 µg/mL. Besides, the Neutralization by PGT-125, IC95 in assay [8] is 0.0526 µg/mL; in assay [9] it was over 10 µg/mL; in [10] it was over 10 µg/mL; in [11] it was over 10 µg/mL; in [12], over 10 µg/mL; in assay [13] it was over 10 µg/mL. In assay [14], this substance returned a Neutralization by PGT-125, IC95 of over 10 µg/mL.

VRC01 (antibody): the IC50 in [15] was found to be 0.366 µg/mL. Moreover, the IC50, pseudovirus neutralization worked out at 0.124 µg/mL in [16] and 0.084 µg/mL in assay [17].

In [18], 1496_C09 (PG9) (TCN-109) (antibody) displayed a neutralization IC50 of 0.048 µg/mL, a neutralization IC80 of 0.308 µg/mL, a neutralization IC90 of 0.981 µg/mL and a neutralization IC95 of 3.31 µg/mL. In [19], this substance came in with a neutralization IC50 of 0.31 µg/mL, a neutralization IC80 of 1.95 µg/mL and a neutralization IC90 of 5.54 µg/mL. For the same substance, in [20], the neutralization IC50 worked out at 0.0048 µg/mL, the neutralization IC80 worked out at 0.0181 µg/mL, the neutralization IC90 was found to be 0.0391 µg/mL and the neutralization IC95 was found to be 0.0798 µg/mL.

On to PGV04 (antibody), for which the IC50 (µg/mL), pseudovirus neutralization was 1.26 µg/mL in [21], 1.56 µg/mL in assay [24] and 0.171 µg/mL in assay [25]. The figures for the IC50, pseudovirus neutralization in [22] and in assay [23] were 6.78 µg/mL and 0.175 µg/mL, respectively.

Consider 4877_D15 (PGT-122) (antibody), for which the Neutralization by PGT-122, IC50 in assay [26] is 0.0388 µg/mL; with HIV-1 APV13 Env (HIV-1), 0.992 µg/mL; in assay [27], over 10 µg/mL; in assay [28], 0.0089 µg/mL; in assay [29], over 10 µg/mL; with HIV-1 APV6 Env (HIV-1), 0.0851 µg/mL. The Neutralization by PGT-122, IC50 was over 10 µg/mL with HIV-1 CMU02 Env (HIV-1) and 0.0072 µg/mL in assay [30]. In addition, the Neutralization by PGT-122, IC80 in assay [26] is 0.499 µg/mL; with HIV-1 APV13 Env (HIV-1), 4.14 µg/mL; in assay [27], over 10 µg/mL; in [28], 0.037 µg/mL; in assay [29], over 10 µg/mL; in the assay with HIV-1 APV6 Env (HIV-1), 0.351 µg/mL. Moreover, the Neutralization by PGT-122, IC80 with HIV-1 CMU02 Env (HIV-1) was over 10 µg/mL; in assay [30], 0.0407 µg/mL. In addition, the Neutralization by PGT-122, IC90 in [26] was over 10 µg/mL; with HIV-1 APV13 Env (HIV-1), 8.6 µg/mL; in assay [27], over 10 µg/mL; in assay [28], 0.0849 µg/mL; in [29] it was over 10 µg/mL; with HIV-1 APV6 Env (HIV-1), 0.779 µg/mL. The values for the Neutralization by PGT-122, IC90 (with HIV-1 CMU02 Env (HIV-1); in assay [30]) were over 10 µg/mL and 0.113 µg/mL, respectively. The Neutralization by PGT-122, IC95 is over 10 µg/mL in assay [26]; over 10 µg/mL with HIV-1 APV13 Env (HIV-1); over 10 µg/mL in assay [27]; 0.181 µg/mL in assay [28]; over 10 µg/mL in assay [29]; 1.55 µg/mL with HIV-1 APV6 Env (HIV-1). Besides, the Neutralization by PGT-122, IC95 was over 10 µg/mL with HIV-1 CMU02 Env (HIV-1) and 0.289 µg/mL in [30].
